Experimental data from patent publication US20210054094A1 (Hoffmann-La Roche, published 2021).

Experiments:
[1] = target: T1, human GPRC5D (human, UniProt Q9NZD1 1-345); experiment: cell-based or functional assay
[2] = target: T1, human GPRC5D; experiment: cell-based or functional assay; remark: listed apart in the source
[3] = target: T2, B-cell maturation antigen (BCMA) (UniProt Q02223 1-184, limits assumed); experiment: cell-based or functional assay
T2 sequence (looked up): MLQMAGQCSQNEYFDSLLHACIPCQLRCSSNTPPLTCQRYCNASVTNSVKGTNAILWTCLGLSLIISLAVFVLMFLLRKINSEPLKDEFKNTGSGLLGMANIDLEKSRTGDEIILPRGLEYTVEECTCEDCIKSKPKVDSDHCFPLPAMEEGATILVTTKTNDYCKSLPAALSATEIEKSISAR

[4] = target: T3, human GPRC5A (human, UniProt Q8NFJ5 1-357); experiment: cell ELISA on stably transfected CHO cells
T3 construct: whole, on cells; also called hu GPCR5A
T3 sequence (Q8NFJ5 whole entry): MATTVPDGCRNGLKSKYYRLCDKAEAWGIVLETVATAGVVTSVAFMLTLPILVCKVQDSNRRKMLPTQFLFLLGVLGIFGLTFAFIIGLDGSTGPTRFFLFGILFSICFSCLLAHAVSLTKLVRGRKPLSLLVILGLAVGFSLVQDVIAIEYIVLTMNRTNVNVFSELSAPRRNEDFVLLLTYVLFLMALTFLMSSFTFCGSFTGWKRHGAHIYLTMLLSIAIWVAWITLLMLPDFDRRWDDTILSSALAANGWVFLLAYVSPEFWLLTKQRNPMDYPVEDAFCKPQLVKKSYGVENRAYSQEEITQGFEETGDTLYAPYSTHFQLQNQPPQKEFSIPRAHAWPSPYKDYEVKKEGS
Method: (§1) Stable transfected CHO clones expressing either human GPRC5D or cynomolgus GPRC5D or murin GPRC5D or human GPRC5A were used to analyze the binding of potential lead candidate antibodies as IgGs. In detail, 10⁴ cells (viability≥98%) were seeded into 384 well-microtiter plates (BD Poly D-Lysin, #356662, volume: 25 μl/well) using fresh culture medium. After overnight incubation at 37° C., 25 μl/well dilutions of antibodies were added (15×1:3 dilutions in 1×PBS, assay conc. starts at 30 μg/ml) to the cells for 2 hours at 4° C. After one washing step using 90 μl/well PBST (10×PBS, Roche, #11666789001+0.1% Tween 20), cells were subsequently fixed by the addition of 50 μl/well 0.05% glutharaldehyde (Sigma Cat. No: G5882 in 1×PBS) for 10 min at room temperature (RT). After three additional washing steps using 90 μl/well PBST, secondary antibodies were added for detection: for human antibodies goat anti-human Ig κ chain antibody HRP conjugate (Millipore #AP502P) diluted 1:2000 in blocking buffer (1×PBS (Roche #11666789001)+2% BSA (Bovine Serum Albumin Fraction V, fatty acid free, Roche, #10735086001)+0.05% Tween 20) was used (25 μl/well). […] After incubation for 1 h at RT and three additional washing steps using 90 μl/well PBST, 25 μl/well TMB substrate was added (Roche order no. 11835033001) for 10 min and color development to final ODs was determined by measurement at 370 nm/492 nm.
(§2) Cynomolgus crossreactivity was also detected for all other antibodies but at lower levels compared to 10B10 and 07A04 (FIG. 9). No significant binding to CHO cells expressing murine GPRC5D and no binding to CHO cells expressing the human version of GPRC5A was detected (FIG. 9).

[5] = target: T4, murine GPRC5D (murine, UniProt Q9JIL6 1-344); experiment: cell ELISA on stably transfected CHO cells
T4 construct: whole, on cells; also called murin GPRC5D
T4 sequence (looked up): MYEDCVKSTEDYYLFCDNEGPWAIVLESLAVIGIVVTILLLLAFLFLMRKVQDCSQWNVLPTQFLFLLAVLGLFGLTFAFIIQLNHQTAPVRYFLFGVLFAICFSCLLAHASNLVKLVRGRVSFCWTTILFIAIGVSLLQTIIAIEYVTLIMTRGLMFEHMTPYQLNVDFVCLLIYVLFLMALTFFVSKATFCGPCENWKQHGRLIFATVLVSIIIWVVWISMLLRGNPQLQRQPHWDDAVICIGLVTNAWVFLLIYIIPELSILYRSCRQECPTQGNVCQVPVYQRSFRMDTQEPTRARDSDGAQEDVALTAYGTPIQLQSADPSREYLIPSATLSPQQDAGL
Method: as §1, §2

T1 sequence (Q9NZD1 whole entry): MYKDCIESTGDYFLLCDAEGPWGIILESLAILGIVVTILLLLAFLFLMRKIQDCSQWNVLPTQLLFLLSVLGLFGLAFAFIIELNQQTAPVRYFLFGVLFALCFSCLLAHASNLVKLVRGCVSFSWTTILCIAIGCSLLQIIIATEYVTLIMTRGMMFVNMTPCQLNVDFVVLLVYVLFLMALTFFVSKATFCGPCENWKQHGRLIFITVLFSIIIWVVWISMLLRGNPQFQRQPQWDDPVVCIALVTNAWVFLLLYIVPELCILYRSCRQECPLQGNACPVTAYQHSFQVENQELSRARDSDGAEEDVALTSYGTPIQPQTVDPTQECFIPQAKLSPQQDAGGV

B1: 5E11-TCB (bispecific antibody, human IgG1, kappa, L234A L235A)
light 1: DIVLTQSPALAVSPGQRATISCRASQSVSISGINLMNWYQQKPGQQPKLLIYHASILASGIPTRFSGSGSGTDFTLTIDPVQADDIATYYCQQTRESPLTFGSGTNLEIKRTVAAPSVFIFPPSDRKLKSGTASVVCLLNNFYPREAKVQWKVDNALQSGNSQESVTEQDSKDSTYSLSSTLTLSKADYEKHKVYACEVTHQGLSSPVTKSFNRGEC
light 2: EVQLLESGGGLVQPGGSLRLSCAASGFTFSTYAMNWVRQAPGKGLEWVSRIRSKYNNYATYYADSVKGRFTISRDDSKNTLYLQMNSLRAEDTAVYYCVRHGNFGNSYVSWFAYWGQGTLVTVSSASVAAPSVFIFPPSDEQLKSGTASVVCLLNNFYPREAKVQWKVDNALQSGNSQESVTEQDSKDSTYSLSSTLTLSKADYEKHKVYACEVTHQGLSSPVTKSFNRGEC
heavy 1: ELQLEQSGGGLVQPGGSLTLSCAASGFTFSKYAMAWVRQAPTKGLEWVASISTGGVNTYYRDSVKARFTISRDNAKNTQYLQMDSLRSEDTATYYCATHTGDYFDYWGQGVMVTVSSASTKGPSVFPLAPSSKSTSGGTAALGCLVEDYFPEPVTVSWNSGALTSGVHTFPAVLQSSGLYSLSSVVTVPSSSLGTQTYICNVNHKPSNTKVDEKVEPKSCDKTHTCPPCPAPEAAGGPSVFLFPPKPKDTLMISRTPEVTCVVVDVSHEDPEVKFNWYVDGVEVHNAKTKPREEQYNSTYRVVSVLTVLHQDWLNGKEYKCKVSNKALGAPIEKTISKAKGQPREPQVCTLPPSRDELTKNQVSLSCAVKGFYPSDIAVEWESNGQPENNYKTTPPVLDSDGSFFLVSKLTVDKSRWQQGNVFSCSVMHEALHNHYTQKSLSLSPGK
heavy 2: not shown
- EC50 of in vitro killing, AMO-1 cells [1]: 8 pM
- EC50 of in vitro killing, EJM cells [1]: 11 pM
- EC50 of in vitro killing, L363 cells [1]: 17 pM
- EC50 of in vitro killing, MOLP-2 cells [1]: 18 pM
- EC50 of in vitro killing, NCI-H929 cells [1]: 7 pM
- EC50 of in vitro killing, OPM-2 cells [1]: 2 pM
- EC50 of in vitro killing, RPMI cells [1]: 64 pM
- EC50 of T cell cytotoxicity (LDH release) on AMO-1 cells [2]: 14 pM
- EC50 of T cell cytotoxicity (LDH release) on L363 cells [2]: 12 pM
- EC50 of T cell cytotoxicity (LDH release) on NCI-H929 cells [2]: 7 pM
- EC50 of T cell cytotoxicity (LDH release) on RPMI-8226 cells [2]: 24 pM

B2: 5F11-TCB (bispecific antibody, human IgG1, kappa, L234A L235A)
light 1: DIVMTQAPLSVSVTPGESASISCRSSKSLLHSNGITYVYWYFQKPGKSPQVLIYRMSNLASGVPDRFSGSGSETDFTLKISRVEAEDVGIYHCGQLLENPYTFGAGTELELKRTVAAPSVFIFPPSDRKLKSGTASVVCLLNNFYPREAKVQWKVDNALQSGNSQESVTEQDSKDSTYSLSSTLTLSKADYEKHKVYACEVTHQGLSSPVTKSFNRGEC
light 2: EVQLLESGGGLVQPGGSLRLSCAASGFTFSTYAMNWVRQAPGKGLEWVSRIRSKYNNYATYYADSVKGRFTISRDDSKNTLYLQMNSLRAEDTAVYYCVRHGNFGNSYVSWFAYWGQGTLVTVSSASVAAPSVFIFPPSDEQLKSGTASVVCLLNNFYPREAKVQWKVDNALQSGNSQESVTEQDSKDSTYSLSSTLTLSKADYEKHKVYACEVTHQGLSSPVTKSFNRGEC
heavy 1: EVQLVESGGGLVQPGRSLKLSCAASGFSFSNYGMAWVRQAATKGLEWVASISTGGGNTYYRDSVKGRFIVSRDNAKNTQYLQMDSLRSEDTATYYCTRHDRGGLYWGQGVMVTVSSASTKGPSVFPLAPSSKSTSGGTAALGCLVEDYFPEPVTVSWNSGALTSGVHTFPAVLQSSGLYSLSSVVTVPSSSLGTQTYICNVNHKPSNTKVDEKVEPKSCDKTHTCPPCPAPEAAGGPSVFLFPPKPKDTLMISRTPEVTCVVVDVSHEDPEVKFNWYVDGVEVHNAKTKPREEQYNSTYRVVSVLTVLHQDWLNGKEYKCKVSNKALGAPIEKTISKAKGQPREPQVCTLPPSRDELTKNQVSLSCAVKGFYPSDIAVEWESNGQPENNYKTTPPVLDSDGSFFLVSKLTVDKSRWQQGNVFSCSVMHEALHNHYTQKSLSLSPGK
heavy 2: not shown
- EC50 of in vitro killing, AMO-1 cells [1]: 6 pM
- EC50 of in vitro killing, EJM cells [1]: 3 pM
- EC50 of in vitro killing, L363 cells [1]: 3 pM
- EC50 of in vitro killing, MOLP-2 cells [1]: 1 pM
- EC50 of in vitro killing, NCI-H929 cells [1]: 4 pM
- EC50 of in vitro killing, OPM-2 cells [1]: 1 pM
- EC50 of in vitro killing, RPMI cells [1]: 6 pM
- EC50 of T cell cytotoxicity (LDH release) on AMO-1 cells [2]: 3 pM
- EC50 of T cell cytotoxicity (LDH release) on L363 cells [2]: 1 pM
- EC50 of T cell cytotoxicity (LDH release) on NCI-H929 cells [2]: 1 pM
- EC50 of T cell cytotoxicity (LDH release) on RPMI-8226 cells [2]: 2 pM

B3: BCMA-TCB (bispecific antibody, human IgG1, kappa, L234A L235A)
heavy 1: EVQLLESGGGLVQPGGSLRLSCAASGFTFSSYAMNWVRQAPGKGLEWVSAITASGGSTYYADSVKGRFTISRDNSKNTLYLQMNSLRAEDTAVYYCARYWPMSLWGQGTLVTVSSASTKGPSVFPLAPSSKSTSGGTAALGCLVEDYFPEPVTVSWNSGALTSGVHTFPAVLQSSGLYSLSSVVTVPSSSLGTQTYICNVNHKPSNTKVDEKVEPKSCDKTHTCPPCPAPEAAGGPSVFLFPPKPKDTLMISRTPEVTCVVVDVSHEDPEVKFNWYVDGVEVHNAKTKPREEQYNSTYRVVSVLTVLHQDWLNGKEYKCKVSNKALGAPIEKTISKAKGQPREPQVCTLPPSRDELTKNQVSLSCAVKGFYPSDIAVEWESNGQPENNYKTTPPVLDSDGSFFLVSKLTVDKSRWQQGNVFSCSVMHEALHNHYTQKSLSLSPGK
light 1: EIVLTQSPGTLSLSPGERATLSCRASQSVSAYYLAWYQQKPGQAPRLLMYDASIRATGIPDRFSGSGSGTDFTLTISRLEPEDFAVYYCQQYERWPLTFGQGTKVEIKRTVAAPSVFIFPPSDRKLKSGTASVVCLLNNFYPREAKVQWKVDNALQSGNSQESVTEQDSKDSTYSLSSTLTLSKADYEKHKVYACEVTHQGLSSPVTKSFNRGEC
heavy 2: not shown
light 2: EVQLLESGGGLVQPGGSLRLSCAASGFTFSTYAMNWVRQAPGKGLEWVSRIRSKYNNYATYYADSVKGRFTISRDDSKNTLYLQMNSLRAEDTAVYYCVRHGNFGNSYVSWFAYWGQGTLVTVSSASVAAPSVFIFPPSDEQLKSGTASVVCLLNNFYPREAKVQWKVDNALQSGNSQESVTEQDSKDSTYSLSSTLTLSKADYEKHKVYACEVTHQGLSSPVTKSFNRGEC
- EC50 of in vitro killing, AMO-1 cells [3]: 518 pM
- EC50 of in vitro killing, EJM cells [3]: 132 pM
- EC50 of in vitro killing, L363 cells [3]: 127 pM
- EC50 of in vitro killing, MOLP-2 cells [3]: 32 pM
- EC50 of in vitro killing, NCI-H929 cells [3]: 311 pM
- EC50 of in vitro killing, OPM-2 cells [3]: 33 pM
- EC50 of in vitro killing, RPMI cells [3]: 11 pM

B4: 5F11 IgG (antibody, V domains shown)
VH: EVQLVESGGGLVQPGRSLKLSCAASGFSFSNYGMAWVRQAATKGLEWVASISTGGGNTYYRDSVKGRFIVSRDNAKNTQYLQMDSLRSEDTATYYCTRHDRGGLYWGQGVMVTVSS
VL: DIVMTQAPLSVSVTPGESASISCRSSKSLLHSNGITYVYWYFQKPGKSPQVLIYRMSNLASGVPDRFSGSGSETDFTLKISRVEAEDVGIYHCGQLLENPYTFGAGTELELK
- binding result [4]: no binding (tested: 30 µg/ml top concentration)

B5: 10B10 IgG (antibody, V domains shown)
VH: EVQLVESGGGLVQPGRSMKLSCAASGFTFTNFYMAWVRQAPTKALEWVASINTGGGYTYYRDSVKGRFTVSRDNTRSTLYLQMDSLRSEETATYYCARHLTYYGRYYYFDYWGQGVMVTVSS
VL: DIQLTQSPHSLSASLGETVSIECLASEGISNYLAWFHQKPGKSPQLLIYYASSLQDGVPSRFSGSGSGTQYSLKISNMQPEDEGVYYCQQGYKYPLTFGSGTKLEIK
notes: also called rat IgG 10B10
- binding result [4]: no binding (tested: 30 µg/ml top concentration)
- binding result [5]: no binding (tested: 30 µg/ml top concentration)

B6: 07A04 IgG (antibody, V domains shown)
VH: QVTLKESGPGILQPSHTLSLTCSFSGFSLSTYGMGVNWIRQPSGKGLEWLASIWWNGNTYNNPSLKSRLTVSKDTSNNQAFLKVTSVDTADTATYYCVHTRGIIRGRGLFFDYWGQGVMVTVSS
VL: DVQMTQSPYNLAASPGESVSINCKASKSISKYLAWYQQKPGKANKLLIYDGSTLQSGIPSRFSGSGSGTDFTLTIRSLEPEDFGLYYCQQHNEYPLTFGSGTKLEIKR
notes: also called rat IgG 07A04
- binding result [4]: no binding (tested: 30 µg/ml top concentration)
- binding result [5]: no binding (tested: 30 µg/ml top concentration)

B7: 5E11 IgG (antibody, V domains shown)
VH: ELQLEQSGGGLVQPGGSLTLSCAASGFTFSKYAMAWVRQAPTKGLEWVASISTGGVNTYYRDSVKARFTISRDNAKNTQYLQMDSLRSEDTATYYCATHTGDYFDYWGQGVMVTVSS
VL: DIVLTQSPALAVSPGQRATISCRASQSVSISGINLMNWYQQKPGQQPKLLIYHASILASGIPTRFSGSGSGTDFTLTIDPVQADDIATYYCQQTRESPLTFGSGTNLEIK
- binding result [4]: no binding (tested: 30 µg/ml top concentration)
